PMC12002136

Target: exportin 1 (XPO1, CRM1) (UniProt O14980)
Assay: anti-HA
Conditions: reference: wild type; sites S182

How did the “binding against the reference” value turn out when YTHDF1 (from UniProt Q9BYJ9) S182A was run?
Its value is “stronger”.
